The values that follow come from publication PMC11103110.

The target in test [1] is Lotus japonicus phytoglobin LjGlb3-1, recombinant (Lotus japonicus) (UniProt P0DO64). Put plainly: SDS-PAGE with immunoblot (anti-NO2-Tyr and protein-specific antibodies); recombinant protein (20 μM in the methods, 5–10 μM in the legend) incubated with 500 μM SIN-1 (peroxynitrite generator) for 2 h at 30 °C in 50 mM KPi pH 7.4; 15% SDS-PAGE.
For test [2] the target is unchanged. Put plainly: SDS-PAGE under non-reducing conditions with Coomassie staining and immunoblot; recombinant protein (20 μM in the methods, 10 μM in the legend) untreated, with 500 μM DTT or with 200–500 μM H2O2, 1 h, 50 mM KPi pH 7.4; 15% SDS-PAGE; DTT made the dimer almost totally disappear, H2O2 caused partial dimerization.

Regarding “Lotus japonicus phytoglobin LjGlb3-1, recombinant (from UniProt P0DO64 1-168) (natural protein)”, the stoichiometry N in test [1] and in test [2] was 2 each time.
